Data taken from paper doi:10.1101/2024.04.19.590217 (bioRxiv, 2024).

Biological target: the molecule itself
Assay: cryo-EM structure

B1: Simian Virus 40 (SV40) Large Tumour Antigen (LTag) (enzyme)
chain: MDKVLNREESLQLMDLLGLERSAWGNIPLMRKAYLKKCKEFHPDKGGDEEKMKKMNTLYKKMEDGVKYAHQPDFGGFWDATEIPTYGTDEWEQWWNAFNEENLFCSEEMPSSDDEATADSQHSTPPKKKRKVEDPKDFPSELLSFLSHAVFSNRTLACFAIYTTKEKAALLYKKIMEKYSVTFISRHNSYNHNILFFLTPHRHRVSAINNYAQKLCTFSFLICKGVNKEYLMYSALTRDPFSVIEESLPGGLKEHDFNPEEAEETKQVSWKLVTEYAMETKCDDVLLLLGMYLEFQYSFEMCLKCIKKEQPSHYKYHEKHYANAAIFADSKNQKTICQQAVDTVLAKKRVDSLQLTREQMLTNRFNDLLDRMDIMFGSTGSADIEEWMAGVAWLHCLLPKMDSVVYDFLKCMVYNIPKKRYWLFKGPIDSGKTTLAAALLELCGGKALNVNLPLDRLNFELGVAIDQFLVVFEDVKGTGGESRDLPSGQGINNLDNLRDYLDGSVKVNLEKKHLNKRTQIFPPGIVTMNEYSVPKTLQARFVKQIDFRPKDYLKHCLERSEFLLEKRIIQSGIALLLMLIWYRPVAEFAQSIQSRIVEWKERLDKEFSLSVYQKMKFNVAMGIGVLDWLRNSDDDDEDSQENADKNEDGGEKNMEDSGHETGIDSQSQGSFQAPQSSQSVHDHNQPYHICRGFTCFKKPPTPPPEPET
- stoichiometry N: 6
